Article PMC5522039, “Non-invasive assessment of murine PD-L1 levels in syngeneic tumor models by nuclear imaging with nanobody tracers” (Oncotarget, 2017)
Numbering of substitutions follows the chain as printed.

B1: Nb A1 (HA-tagged, in periplasmic extract) (VHH)
VHH: QVQLQESGGGLVQPGGSLRLSCAASGFTLDYYAIGWFRQAPGKEREGVSCISSSDGSTYYADSVKGRFTISRDNAKNTVYLQMSSLKPEDTAVYYCGISGSCLLEDYGMDYWGKGTQVTVSS
notes: source: E. coli WK6 (pHEN4), crude periplasmic extract
B2: Nb C6 (HA-tagged, in periplasmic extract) (VHH)
VHH: QVQLQESGGGLVQAGDSLRLSCAASGSTVSSSMMAWWRQTPGNQRELVALVASGNNTNYVDSVKGRFTVSRDNAKNTMYLQMNSLKPEDTAVYYCRILSVNGIWYWGQGTQVTVSS
notes: as for B1
B3: Nb C7 (HA-tagged, in periplasmic extract) (VHH)
VHH: QVQLQESGGGSVQAGESLTLSCTASGSSLSHKSVGWWRQTPGNQRELVALVASGNNTNYVDSVKGRFTVSRDNAKNTMYLQMNSLKPEDTAVYYCRILSVNGIWYWGQGTQVTVSS
notes: as for B1
B4: Nb C9 (HA-tagged, in periplasmic extract) (VHH)
VHH: B2 VHH with D16E, A24G, M33T, N55G, V100M
notes: as for B1
B5: Nb C10 (HA-tagged, in periplasmic extract) (VHH)
VHH: B2 VHH with A14T, D16G, M33T, N55G, V100M
notes: as for B1
B6: Nb C11 (HA-tagged, in periplasmic extract) (VHH)
VHH: B2 VHH with A14T, D16G, M33T, N55G
notes: as for B1
B7: Nb B1 (HA-tagged, in periplasmic extract) (VHH)
VHH: QVQLQESGGGLVHPGGSLRLSCAASGFSLDNYAIGWFRQAPGKEREGVSCISSGSEGRRYYADFVKGRFTISRDNAKNTAFLQMNSLKPEDTADYYCATVGFCSSQYGMEFVGDYWGQGTQVTVSS
notes: as for B1
B8: Nb C12 (HA-tagged, in periplasmic extract) (VHH)
VHH: B2 VHH with A14T, D16G, M33T, N55G, P87A
notes: as for B1
B9: Nb C13 (HA-tagged, in periplasmic extract) (VHH)
VHH: B2 VHH with A14T, D16G, M33T, W37Y, E46D, A52G, N55G, T57I, R71I
notes: as for B1
B10: Nb C14 (HA-tagged, in periplasmic extract) (VHH)
VHH: B2 VHH with A14T, D16G, S30G, M33T, A52G, S53L, N55G, R71I, K75E, P87F
notes: as for B1
B11: Nb C15 (HA-tagged, in periplasmic extract) (VHH)
VHH: QVQLQESGGGLVQTGGSLRVSCAVSGSTVSRSTMAWWRQTPGNQRELVALVDSGGKSNYVDSVKGRFTISTDNAKNTMYLQMNSLKPEDTAVYYCRILSVQGIWYWGQGTQVTVSS
notes: as for B1
B12: Nb C16 (HA-tagged, in periplasmic extract) (VHH)
VHH: B11 VHH with T14A, R19K, R31S, Q101K
notes: as for B1
B13: Nb D1 (HA-tagged, in periplasmic extract) (VHH)
VHH: QVQLQESGGGLVQAGGSLRLSCAASGITVSINAMAWYRQPPGKQRELVALIIGGSTRYADSVKGRFTISRDNAKNTVYLQMNSLKPEDTAVYACNTRAYWGQGTQVTVSS
notes: as for B1
B14: Nb E1 (HA-tagged, in periplasmic extract) (VHH)
VHH: QVQLQESGGGLVQAGGSLRLSCATSGSIFSIISMGWYRQAPGKQRELVALVFRGGSTVYADSVKGRFTISGDIAKNTVYLQMDSLKPEDTAVYYCNVKSIGTAQYWGQGTQVTVSS
notes: as for B1
B15: Nb E2 (HA-tagged, in periplasmic extract) (VHH)
VHH: B14 VHH with V112I
notes: as for B1
B16: Nb E5 (HA-tagged, in periplasmic extract) (VHH)
VHH: B14 VHH with A14P, N76S, V97A, S99P
notes: as for B1

Key:
[1] = biological target: T1, Human PD-L1 Fc-fusion protein (R&D Systems, 156-B7) (Homo sapiens, UniProt Q9NZQ7); test: SPR; Biacore T200, 25°C, HBS (0.01 M HEPES pH 7.4, 0.15 M NaCl, 3 mM EDTA, 0.005% Tween 20); mouse or human PD-L1 Fc-fusion protein amine-coupled on a CM5 chip (650-900 RU); Nb in crude periplasmic extract as analyte, its concentration estimated by CFCA; 9 dilutions, 120 s association, 160 s dissociation; 1-to-1 fit; affinity estimations; details: one partner purified
T1 construct: programmed death-ligand 1 (PD-L1, B7-H1, CD274), human; also called huPD-L1; B7-H1; source: bought: R&D Systems (156-B7)
T1 sequence (Q9NZQ7 19-238): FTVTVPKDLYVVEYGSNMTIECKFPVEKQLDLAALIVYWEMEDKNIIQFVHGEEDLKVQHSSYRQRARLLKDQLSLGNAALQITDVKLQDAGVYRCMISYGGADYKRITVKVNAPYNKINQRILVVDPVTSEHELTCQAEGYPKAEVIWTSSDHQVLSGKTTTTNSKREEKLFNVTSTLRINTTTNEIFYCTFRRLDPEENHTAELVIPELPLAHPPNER

[2] = biological target: T2, Mouse PD-L1 Fc-fusion protein (R&D Systems, 1019-B7) (Mus musculus, UniProt Q9EP73); test: as above; details: one partner purified
T2 construct: programmed death-ligand 1 (PD-L1, B7-H1, CD274), mouse; also called moPD-L1; B7-H1; source: bought: R&D Systems (1019-B7)
T2 sequence (Q9EP73 19-239): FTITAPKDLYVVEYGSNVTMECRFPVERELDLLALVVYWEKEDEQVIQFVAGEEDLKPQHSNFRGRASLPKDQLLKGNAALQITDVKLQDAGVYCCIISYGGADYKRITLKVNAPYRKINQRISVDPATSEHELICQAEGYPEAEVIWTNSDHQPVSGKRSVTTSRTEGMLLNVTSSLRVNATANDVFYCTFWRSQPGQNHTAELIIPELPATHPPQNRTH

Row | Binder | Kd [1] [nM] | Kd [2] [nM]
1 | B1 | 23 | –
2 | B2 | 94 | 0.289
3 | B3 | 27 | 3.1
4 | B4 | 44 | 2.2
5 | B5 | 141 | 6.7
6 | B6 | 246 | 12
7 | B7 | 6 | 123
8 | B8 | 181 | 11.4
9 | B9 | 162 | 33
10 | B10 | 71 | 1.8
11 | B11 | 335 | 6.5
12 | B12 | 520 | 15
13 | B13 | 291 | 12
14 | B14 | 12 | 2.3
15 | B15 | 94 | 5.6
16 | B16 | 54 | 14
